The source of these data is US20230399376A1 (BAKER HEART AND DIABETES INSTITUTE, published 2023).

In assay [1] the target is T1, activated glycoprotein GPIIb/IIIa on ADP-activated human platelets (human, UniProt P08514 32-1039; P05106 27-788).
T1 construct: also called integrin alphaIIbbeta3
Put plainly: flow cytometry on ADP-activated human platelets, anti-Penta-His Alexa Fluor 488 detection. As for the experimental part:
(§1) Binding of scFv-CD39 to activated human platelets was evaluated by flow cytometry: 0.1 mg/mL of scFv-CD39, 0.2 mg/mL of scFvₘᵤₜ-CD39 (both activity matched), and 0.038 mg/mL of anti-CD41 scFv (equimolar amount of the scFv in scFv-CD39) were tested.
(§2) Citrated blood from volunteers was centrifuged at 180 g for 10 minutes. The platelet-rich plasma (PRP) was collected and stored at 37° C. The remainder (infranatant) was centrifuged at 2500 g for 10 minutes, and its supernatant was collected as platelet-poor plasma (PPP).
(§3) PRP was diluted 1:20 in phosphate-buffered saline (PBS; 100 mg/L calcium chloride, 100 mg/L magnesium chloride). To investigate the binding of scFv-CD39 constructs, the diluted PRP ([…]) was either preincubated with a final concentration of […] ADP or […] of PBS for 15 minutes before addition of the constructs. The binding was then determined via a Penta-His Alexa Fluor-488-conjugated monoclonal antibody (Qiagen). To investigate the ecto-nucleoside triphosphate diphosphohydrolase efficiency, PRP was preincubated with scFv-CD39 constructs before administration of […] ADP. Platelet activation status was measured by a phycoerythrin (PE)-labeled anti-P-selectin antibody (BD Bioscience). Samples were fixed using […] Cellfix (BD Bioscience) and analyzed on a FACS Calibur (BD Bioscience).
On the technique in general: A flow cytometer gives signals particle by particle.

Assay [2] deals with GPIIb/IIIa on non-activated (resting) human platelets (human, UniProt P08514 32-1039; P05106 27-788). Briefly: flow cytometry on human platelets, anti-Penta-His Alexa Fluor 488 detection. As for the experimental part:
as §1, §2, §3

Chain of GPIIb/IIIa on non-activated (resting) human platelets (P08514 32-1039 limits assumed, chain 1 of 2): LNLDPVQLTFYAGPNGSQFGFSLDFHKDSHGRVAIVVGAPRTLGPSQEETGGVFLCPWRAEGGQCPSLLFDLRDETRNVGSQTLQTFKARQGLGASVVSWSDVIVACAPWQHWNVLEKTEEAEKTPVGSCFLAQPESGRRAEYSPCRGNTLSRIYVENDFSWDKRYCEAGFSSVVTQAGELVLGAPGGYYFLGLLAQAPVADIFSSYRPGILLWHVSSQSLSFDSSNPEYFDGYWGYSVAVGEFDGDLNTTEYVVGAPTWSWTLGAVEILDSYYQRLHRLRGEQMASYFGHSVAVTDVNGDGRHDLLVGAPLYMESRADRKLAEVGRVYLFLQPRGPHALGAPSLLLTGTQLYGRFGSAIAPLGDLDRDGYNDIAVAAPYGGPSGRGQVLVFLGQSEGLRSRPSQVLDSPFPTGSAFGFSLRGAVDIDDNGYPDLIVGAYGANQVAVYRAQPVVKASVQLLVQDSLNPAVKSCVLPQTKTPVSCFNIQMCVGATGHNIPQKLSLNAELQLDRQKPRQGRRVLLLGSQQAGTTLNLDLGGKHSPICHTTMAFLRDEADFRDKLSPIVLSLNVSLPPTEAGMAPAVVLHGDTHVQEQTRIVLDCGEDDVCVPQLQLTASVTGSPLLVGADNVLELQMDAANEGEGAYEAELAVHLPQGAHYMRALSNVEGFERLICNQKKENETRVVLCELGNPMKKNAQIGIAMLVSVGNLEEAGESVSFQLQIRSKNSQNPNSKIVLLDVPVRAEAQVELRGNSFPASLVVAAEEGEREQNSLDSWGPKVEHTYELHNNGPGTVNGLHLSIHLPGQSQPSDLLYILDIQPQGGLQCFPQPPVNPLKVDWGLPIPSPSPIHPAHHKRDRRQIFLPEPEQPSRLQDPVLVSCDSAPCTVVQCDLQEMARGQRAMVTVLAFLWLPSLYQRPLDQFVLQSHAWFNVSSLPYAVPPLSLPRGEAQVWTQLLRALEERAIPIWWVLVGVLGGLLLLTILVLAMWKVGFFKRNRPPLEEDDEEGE
Chain of GPIIb/IIIa on non-activated (resting) human platelets (P05106 27-788 limits assumed, chain 2 of 2): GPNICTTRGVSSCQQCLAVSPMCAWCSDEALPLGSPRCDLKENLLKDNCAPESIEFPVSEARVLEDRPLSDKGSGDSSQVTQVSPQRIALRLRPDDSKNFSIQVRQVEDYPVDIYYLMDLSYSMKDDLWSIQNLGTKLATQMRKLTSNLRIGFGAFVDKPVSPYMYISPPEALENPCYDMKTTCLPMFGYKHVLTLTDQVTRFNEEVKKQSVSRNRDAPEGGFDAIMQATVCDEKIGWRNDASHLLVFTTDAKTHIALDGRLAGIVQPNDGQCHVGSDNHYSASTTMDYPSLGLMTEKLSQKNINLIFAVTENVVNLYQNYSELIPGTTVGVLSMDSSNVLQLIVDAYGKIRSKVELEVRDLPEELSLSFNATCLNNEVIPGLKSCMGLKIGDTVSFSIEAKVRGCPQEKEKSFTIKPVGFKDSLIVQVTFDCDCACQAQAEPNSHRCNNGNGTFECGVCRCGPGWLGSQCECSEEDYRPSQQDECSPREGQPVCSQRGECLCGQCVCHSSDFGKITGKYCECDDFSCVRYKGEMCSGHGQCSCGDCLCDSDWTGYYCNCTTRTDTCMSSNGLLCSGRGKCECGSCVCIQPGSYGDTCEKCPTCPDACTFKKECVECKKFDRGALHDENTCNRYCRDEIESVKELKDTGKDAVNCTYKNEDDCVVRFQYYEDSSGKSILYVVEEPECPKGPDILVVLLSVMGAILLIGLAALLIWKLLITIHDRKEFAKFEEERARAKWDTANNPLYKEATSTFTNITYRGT
T1 sequence (P08514 32-1039 limits assumed, chain 1 of 2): as the sequence (P08514 32-1039 limits assumed, chain 1 of 2) above
T1 sequence (P05106 27-788 limits assumed, chain 2 of 2): as the sequence (P05106 27-788 limits assumed, chain 2 of 2) above

B1: scFvmut-CD39 (scFv)
chain: HHHHHHHHRRAVRSLVPSSDPLQCGGILAEVQLVQSGAEVNKPGASVKVSCKASGYTFTGYYMHWVRQAPGQGLEWMGWINPNSGGTNYAQKFQGWVTMTRDTSISTAYMELSRLRSDDTAVYYCARGRALYNANDRSPNWFDPWGQGTLVTVSSGSASAPTLKLEEGEFSEARVQAVLTQPPSVSVAPGQTARITCGGNNIGSKSVQWYQQKPGQAPVLVVYDDSDRPSGIPERFSGSNSGNMATLTISRVEAGDEADYYCQVWDSSSDHVVFGGGTKLTVLGGKPIPNPLLGLDSTLPETGGLEEAAATQNKALPENVKYGIVLDAGSSHTSLYIYKWPAEKENDTGVVHQVEECRVKGPGISKFVQKVNEIGIYLTDCMERAREVIPRSQHQETPVYLGATAGMRLLRMESEELADRVLDVVERSLSNYPFDFQGARIITGQEEGAYGWITINYLLGKFSQKTRWFSIVPYETNNQETFGALDLGGASTQVTFVPQNQTIESPDNALQFRLYGKDYNVYTHSFLCYGKDQALWQKLAKDIQVASNEILRDPCFHPGYKKVVNVSDLYKTPCTKRFEMTLPFQQFEIQGIGNYQQCHQSILELFNTSYCPYSQCAFNGIFLPPLQGDFGAFSAFYFVMKFLNLTSEKVSQEKVTEMMKKFCAQPWEEIKTSYAGVKEKYLSEYCFSGTYILSLLLQGYHFTADSWEHIHFIGKIQGSDAGWTLGYMLNLTNMIPAEQPLSTPLSHSTTRGGPEQKLISEEDLNSAVDHHHHHH
notes: Non-targeting control construct; also called non-targ-CD39; Non-targCD39; not shown: 6xHis-tag used for detection
As for B1, the binding result in assay [1] and in assay [2] was “no binding (tested: 0.2 mg/mL)” in each case.
